Where “and” joins values, the source holds several entries; their conditions need not be identical. Equal values may be shown once.
Experiments:
[1] = target: human Bcl-2 protein produced in 32D-BCL-2 cells (human) (UniProt P10415); assay: immunoprecipitation with anti-Bcl-2 monoclonal antibody 4D7 or control mouse IgG1 from 32D-BCL-2 lysate, in vitro immune complex kinase assay
[2] = target: GST protein without BAP-1 sequences (Schistosoma japonicum (Blood fluke), UniProt P08515 = GST); assay: GST pull-down of 35S-labeled in vitro translated protein, SDS-PAGE and fluorography
Method: The cDNA sequences encoding Bcl-X-L, Bcl-X-S, Bcl-2 and Bcl-2β were subcloned into plasmid pSK-II (Stratagens), which contains a T7 RNA polymerass binding site. Cloning into pSK-II allows for the in vitro production of RNA, which can be translated in vitro in the presence of ^35S-methionine using reticulocyte lysates to obtain ^35S-labeled proteins. The ^35S-labeled Bcl-2-related proteins (20 µl of in vitro translation mix) were added to approximately 1 µg of GST-BAP-1 fusion protein immobilized on 10 µl of glutathione-Sepharose or with approximately 1 µg of immobilized GST control protein as described above. Following incubation at 4° C. for 1 hr, the Sepharose particles were washed 3× in a solution containing 147 mM KCl, 20 mM Hepes (pH 7.1), 1 mM MgCl_2, 0.5 mM EGTA, 1 mM PMSF, 0.05 NP-40, 1 mM DTT, 1% non-fat dried milk and 1% BSA. The Sepharose particles were collected by centrifugation and boiled in Laemmli sample buffer to release any bound ^35S-labeled Bcl-2-related proteins. The released proteins were size-fractionated by SDS-PAGE using a 10% gel and visualized by fluorography using X-ray film.

## full length endogenous Raf-1 kinase (from UniProt Q99N57) (enzyme)
[1]
  Raf-1 kinase activity in Bcl-2 immune complexes relative to control immune complexes (× (fold over control immune complexes)): 20 and 50

B1: 35S-labeled Bcl-2β (in vitro translated) (other)
chain: MAHAGRTGYDNREIVMKYIHYKLSQRGYEWDAGDVGAAPPGAAPAPGIFSSQPGHTPHPAASRDPVARTSPLQTPAAPGAAAGPALSPVPPVVHLTLRQAGDDFSRRYRRDFAEMSSQLHLTPFTARGRFATVVEELFRDGVNWGRIVAFFEFGGVMCVESVNREMSPLVDNIALWMTEYLNRHLHTWIQDNGGWVGALGDVSLG
modifications: 35S-methionine label
[2]
  binding result: no binding

B2: 35S-labeled Bcl-X-S (in vitro translated) (other)
chain: MSQSNRELVVDFLSYKLSQKGYSWSQFSDVEENRTEAPEGTESEMETPSAINGNPSWHLADSPAVNGATGHSSSLDAREVIPMAAVKQALREAGDEFELRYRRAFSDLTSQLHITPGTAYQSFEQDTFVELYGNNAAAESRKGQERFNRWFLTGMTVAGVVLLGSLFSRK
modifications: 35S-methionine label
[2]
  binding result: no binding
